Assay results from patent publication US20120039865A1 (YALE UNIVERSITY, published 2012).

T1: mouse SorCS1 (GenBank Accession No. BC007486) expressed in COS-7 cells (mouse, UniProt Q9JLC4 34-1167)
T1 construct: whole, on cells
T1 sequence (looked up): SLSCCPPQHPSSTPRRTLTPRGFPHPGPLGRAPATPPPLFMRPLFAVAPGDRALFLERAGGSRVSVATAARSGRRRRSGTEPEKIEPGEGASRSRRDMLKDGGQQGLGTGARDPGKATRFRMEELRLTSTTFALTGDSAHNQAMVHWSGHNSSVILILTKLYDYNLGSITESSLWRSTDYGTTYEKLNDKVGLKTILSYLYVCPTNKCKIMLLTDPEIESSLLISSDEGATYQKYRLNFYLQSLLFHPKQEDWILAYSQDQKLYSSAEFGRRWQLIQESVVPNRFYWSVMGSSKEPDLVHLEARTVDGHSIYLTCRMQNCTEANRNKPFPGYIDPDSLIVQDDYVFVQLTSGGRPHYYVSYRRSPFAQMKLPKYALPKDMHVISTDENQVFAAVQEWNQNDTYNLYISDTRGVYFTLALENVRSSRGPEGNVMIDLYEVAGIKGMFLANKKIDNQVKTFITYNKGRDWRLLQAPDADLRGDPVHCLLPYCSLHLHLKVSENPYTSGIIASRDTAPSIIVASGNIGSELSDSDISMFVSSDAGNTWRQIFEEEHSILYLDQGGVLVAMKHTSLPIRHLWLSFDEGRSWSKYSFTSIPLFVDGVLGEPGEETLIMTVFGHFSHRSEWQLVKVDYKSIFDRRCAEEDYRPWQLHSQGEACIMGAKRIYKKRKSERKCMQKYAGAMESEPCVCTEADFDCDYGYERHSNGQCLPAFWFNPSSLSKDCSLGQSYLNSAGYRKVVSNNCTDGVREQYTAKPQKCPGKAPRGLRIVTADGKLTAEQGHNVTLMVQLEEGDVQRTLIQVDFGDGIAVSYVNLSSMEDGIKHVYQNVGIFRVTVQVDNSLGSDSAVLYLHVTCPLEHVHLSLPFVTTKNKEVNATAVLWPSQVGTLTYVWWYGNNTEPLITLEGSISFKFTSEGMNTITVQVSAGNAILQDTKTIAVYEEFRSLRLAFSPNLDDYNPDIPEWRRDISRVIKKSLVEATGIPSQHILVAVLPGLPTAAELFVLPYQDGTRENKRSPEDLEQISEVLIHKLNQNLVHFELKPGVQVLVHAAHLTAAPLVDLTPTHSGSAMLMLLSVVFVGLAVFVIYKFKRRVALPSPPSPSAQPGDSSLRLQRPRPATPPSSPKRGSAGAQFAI

T2: mouse sortilin-1 (Sort1; GenBank Accession No. NM 019972) expressed in COS-7 cells (mouse, UniProt Q6PHU5 74-825)
T2 construct: cDNA clone from a mouse library, transfected into COS-7 cells; also called PGRN-R; PGRN receptor
T2 sequence: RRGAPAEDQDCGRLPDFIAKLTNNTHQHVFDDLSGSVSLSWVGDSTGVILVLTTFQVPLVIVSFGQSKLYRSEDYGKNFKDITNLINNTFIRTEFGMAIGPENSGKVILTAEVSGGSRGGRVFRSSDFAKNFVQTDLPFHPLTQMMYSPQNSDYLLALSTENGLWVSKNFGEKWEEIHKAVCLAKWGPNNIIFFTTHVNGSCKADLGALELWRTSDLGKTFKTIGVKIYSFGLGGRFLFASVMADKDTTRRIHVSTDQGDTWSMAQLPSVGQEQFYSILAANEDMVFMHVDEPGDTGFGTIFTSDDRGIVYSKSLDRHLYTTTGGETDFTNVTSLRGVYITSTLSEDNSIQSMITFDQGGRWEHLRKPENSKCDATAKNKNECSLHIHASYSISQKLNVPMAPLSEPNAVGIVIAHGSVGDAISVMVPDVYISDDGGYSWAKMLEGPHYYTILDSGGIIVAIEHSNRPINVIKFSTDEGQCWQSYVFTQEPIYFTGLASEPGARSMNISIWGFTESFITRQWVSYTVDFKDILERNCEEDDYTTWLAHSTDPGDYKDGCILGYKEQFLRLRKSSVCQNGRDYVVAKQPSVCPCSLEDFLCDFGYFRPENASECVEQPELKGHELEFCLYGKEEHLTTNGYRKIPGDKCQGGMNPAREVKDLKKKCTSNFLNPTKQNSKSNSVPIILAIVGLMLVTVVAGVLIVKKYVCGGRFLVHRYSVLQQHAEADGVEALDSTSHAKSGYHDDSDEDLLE

T3: rat sortilin (Sort1) on E18 rat cortical neurons (rat, UniProt O54861 74-825)
T3 construct: Native receptor on cultured rat neurons
T3 sequence: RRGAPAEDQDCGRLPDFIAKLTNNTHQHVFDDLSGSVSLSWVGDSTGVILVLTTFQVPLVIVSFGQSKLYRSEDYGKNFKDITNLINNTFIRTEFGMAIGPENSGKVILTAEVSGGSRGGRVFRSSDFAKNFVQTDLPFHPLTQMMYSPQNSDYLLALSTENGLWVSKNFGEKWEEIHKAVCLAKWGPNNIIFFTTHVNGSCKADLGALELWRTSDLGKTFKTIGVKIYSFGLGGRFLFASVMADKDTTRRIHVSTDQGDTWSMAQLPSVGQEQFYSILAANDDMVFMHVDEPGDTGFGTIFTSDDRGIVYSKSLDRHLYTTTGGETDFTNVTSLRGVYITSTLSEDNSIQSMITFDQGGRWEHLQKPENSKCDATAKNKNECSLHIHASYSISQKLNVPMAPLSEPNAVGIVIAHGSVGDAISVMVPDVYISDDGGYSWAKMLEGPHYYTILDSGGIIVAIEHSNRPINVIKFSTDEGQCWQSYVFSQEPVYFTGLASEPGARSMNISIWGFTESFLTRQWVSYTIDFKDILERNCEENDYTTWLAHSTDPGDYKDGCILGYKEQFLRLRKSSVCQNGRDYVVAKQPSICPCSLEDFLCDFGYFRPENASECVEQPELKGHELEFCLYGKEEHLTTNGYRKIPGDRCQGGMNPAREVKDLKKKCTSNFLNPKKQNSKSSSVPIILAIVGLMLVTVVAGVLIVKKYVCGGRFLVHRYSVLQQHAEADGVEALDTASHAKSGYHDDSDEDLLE


Legend:
[1] = target: T4, human SorLA (GenBank Accession No. U60975) expressed in COS-7 cells (human, UniProt Q92673 82-2214); assay: AP staining of transfected COS-7 cells
T4 construct: whole, on cells
T4 sequence (Q92673 82-2214, one chain of several): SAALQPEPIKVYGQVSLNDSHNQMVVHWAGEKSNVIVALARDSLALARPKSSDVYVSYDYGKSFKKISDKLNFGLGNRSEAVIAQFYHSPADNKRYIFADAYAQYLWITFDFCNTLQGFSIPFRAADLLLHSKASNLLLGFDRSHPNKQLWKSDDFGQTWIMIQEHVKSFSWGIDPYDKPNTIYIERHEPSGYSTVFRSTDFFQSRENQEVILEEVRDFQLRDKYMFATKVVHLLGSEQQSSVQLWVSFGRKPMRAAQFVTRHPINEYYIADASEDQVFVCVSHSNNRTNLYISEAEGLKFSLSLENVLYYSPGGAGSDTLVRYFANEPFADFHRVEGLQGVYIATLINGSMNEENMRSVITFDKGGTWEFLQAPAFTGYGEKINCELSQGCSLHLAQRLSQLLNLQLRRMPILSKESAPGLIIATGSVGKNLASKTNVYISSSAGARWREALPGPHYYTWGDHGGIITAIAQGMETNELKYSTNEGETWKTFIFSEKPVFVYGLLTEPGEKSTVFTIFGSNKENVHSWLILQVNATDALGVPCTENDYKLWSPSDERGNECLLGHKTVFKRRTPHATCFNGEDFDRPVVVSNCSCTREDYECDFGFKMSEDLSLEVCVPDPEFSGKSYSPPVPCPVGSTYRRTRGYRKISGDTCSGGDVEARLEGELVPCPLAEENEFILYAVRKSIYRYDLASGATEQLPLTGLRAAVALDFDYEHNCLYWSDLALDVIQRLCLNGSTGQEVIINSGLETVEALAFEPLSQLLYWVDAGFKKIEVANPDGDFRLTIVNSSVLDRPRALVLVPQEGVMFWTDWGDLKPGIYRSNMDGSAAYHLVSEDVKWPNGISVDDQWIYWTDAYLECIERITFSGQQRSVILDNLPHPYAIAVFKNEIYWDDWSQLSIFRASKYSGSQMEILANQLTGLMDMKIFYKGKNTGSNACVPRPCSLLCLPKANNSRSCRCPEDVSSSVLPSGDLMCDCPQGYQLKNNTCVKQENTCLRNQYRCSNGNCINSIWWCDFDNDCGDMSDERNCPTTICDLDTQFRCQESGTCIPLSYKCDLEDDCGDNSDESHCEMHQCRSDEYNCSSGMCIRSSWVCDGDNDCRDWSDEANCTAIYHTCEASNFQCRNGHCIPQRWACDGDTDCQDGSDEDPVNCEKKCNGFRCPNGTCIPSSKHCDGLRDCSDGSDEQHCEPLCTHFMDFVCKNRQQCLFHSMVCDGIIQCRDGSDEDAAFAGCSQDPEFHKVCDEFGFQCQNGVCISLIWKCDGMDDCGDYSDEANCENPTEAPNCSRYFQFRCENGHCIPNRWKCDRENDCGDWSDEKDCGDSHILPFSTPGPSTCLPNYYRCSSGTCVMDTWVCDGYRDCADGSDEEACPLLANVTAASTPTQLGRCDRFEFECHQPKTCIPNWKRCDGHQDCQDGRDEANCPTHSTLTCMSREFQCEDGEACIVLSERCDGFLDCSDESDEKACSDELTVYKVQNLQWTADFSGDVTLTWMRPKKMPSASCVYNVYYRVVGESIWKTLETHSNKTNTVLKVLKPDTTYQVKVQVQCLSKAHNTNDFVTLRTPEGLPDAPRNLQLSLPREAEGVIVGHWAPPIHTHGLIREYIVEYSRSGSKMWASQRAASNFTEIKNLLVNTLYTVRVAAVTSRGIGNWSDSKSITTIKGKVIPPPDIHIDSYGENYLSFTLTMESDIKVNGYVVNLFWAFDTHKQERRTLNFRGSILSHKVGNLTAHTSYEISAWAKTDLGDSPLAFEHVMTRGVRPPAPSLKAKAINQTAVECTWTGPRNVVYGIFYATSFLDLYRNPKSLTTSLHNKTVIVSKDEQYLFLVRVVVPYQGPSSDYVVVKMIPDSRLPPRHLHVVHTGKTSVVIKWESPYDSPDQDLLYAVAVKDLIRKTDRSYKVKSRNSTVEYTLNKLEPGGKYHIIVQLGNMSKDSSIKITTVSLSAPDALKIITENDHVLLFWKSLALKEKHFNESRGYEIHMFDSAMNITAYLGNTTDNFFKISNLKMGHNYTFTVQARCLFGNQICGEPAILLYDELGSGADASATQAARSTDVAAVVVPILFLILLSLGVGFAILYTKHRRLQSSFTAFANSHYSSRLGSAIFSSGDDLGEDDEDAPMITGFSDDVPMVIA

[2] = target: T1, mouse SorCS1 (GenBank Accession No. …); assay: AP staining of transfected COS-7 cells
[3] = target: T2, mouse sortilin-1 (Sort1; GenBank …); assay: saturation binding of AP-PGRN to Sort1-transfected COS-7 cells, bound AP activity (OD); Sort1-transfected COS-7 cells, FIG. 2B
Method: (§1) FIG. 2B is a graph depicting the saturation analysis of binding of AP-PGRN to COS-7 cells transfected with the PRGN-R, sortilin. The binding of AP-PGRN, measured by the optical density (OD units) of AP ligand bound, was determined as a function of ligand concentration (nM).
(§2) To determine the molecular nature of the neuronal binding site of PGRN, expression cloning experiments utilizing AP-PGRN as a tagged ligand were conducted. COS-7 (ATCC No. CRL-1651) cells were transfected with expression vectors containing mouse cDNAs using FUGENE® 6 according to manufacturer's specifications (Roche). An arrayed adult mouse brain cDNA library (OriGene) of 225,000 clones was screened in pools of 5,000 at a time, as well as a library consisting of 352 individual preparations of cDNAs encoding transmembrane proteins (GFC-transfection array panel, OriGene). […] In both cases, unlabeled 100 nM PGRN displaced binding (FIG. 2A, lower-right panel, and FIG. 3A, right panel).

[4] = target: T2, mouse sortilin-1 (Sort1; GenBank …); assay: saturation binding of AP-tagged ligand to COS-7 cells transfected with sortilin (PGRN-R), bound AP read as optical density of the reaction product
Method: as §1, §2

[5] = target: T3, rat sortilin (Sort1) on E18 rat …; assay: saturation binding of AP-PGRN to cultured cortical neurons (FIG. 1D); neuronal PGRN binding sites, identified by the filing as Sort1; cultured cortical neurons (FIG. 1D), species not stated
[6] = target: T2, mouse sortilin-1 (Sort1; GenBank …); assay: AP staining of transfected COS-7 cells
[7] = target: T3, rat sortilin (Sort1) on E18 rat …; assay: AP staining of cultured E18 rat cortical neurons (the neuronal PGRN binding site is identified by the filing as Sort1)
Method: Rat (Sprague-Dawley) cortical neurons were isolated from E18 embryos and cultured in vitro for 3-21 days. Cultures were maintained in Neurobasal-A medium supplemented with B27, GLUTAMAX™ (2 mM), sodium pyruvate (1 mM), penicillin, and streptomycin. The binding of 10 nM AP-PGRN or 10 nM AP was detected as a dark reaction product produced by alkaline phosphatase (AP). Binding was measured as follows. The AP tagged ligand (in NBA) was incubated with the cortical neurons for 1 hr at 4° C., washed three times with HBH buffer, fixed with formaldehyde, and after washing again with HBH the neurons were incubated in a 67° C. oven to inactivate the endogenous AP. The tagged AP was then visualized using AP substrate 5-bromo-4-chloro-3-indolyl phosphate/nitro blue tetrazolium, which results in a dark precipitate. […] The addition of 100 nM Flag-PGRN displaced 10 nM AP-PGRN (FIG. 1C, middle panel).

Binder	binding result [1]	binding result [2]	Kd [3] [nM]	EC50 (read off the curve) [4] [nM]	Kd [5] [nM]	binding result [6]	binding result [7]
AP-PGRN (alkaline phosphatase fused to human progranulin, huPGRN, GenBank Accession No. BC010577) (ligand, Made in HEK293T cells from pAPtag-5; also called AP-PRGN; AP tagged ligand; not shown: alkaline phosphatase (AP) tag of expression vector pAPtag-5) TRCPDGQFCPVACCLDPGGASYSCCRPLLDKWPTTLSRHLGGPCQVDAHCSAGHSCIFTVSGTSSCCPFPEAVACGDGHHCCPRGFHCSADGRSCFQRSGNNSVGAIQCPDSQFECPDFSTCCVMVDGSWGCCPMPQASCCEDRVHCCPHGAFCDLVHTRCITPTGTHPLAKKLPAQRTNRAVALSSSVMCPDARSRCPDGSTCCELPSGKYGCCPMPNATCCSDHLHCCPQDTVCDLIQSKCLSKENATTDLLTKLPAHTVGDVKCDMEVSCPDGYTCCRLQSGAWGCCPFTQAVCCEDHIHCCPAGFTCDTQKGTCEQGPHQVPWMEKAPAHLSLPDPQALKRDVPCDNVSSCPSSDTCCQLTSGEWGCCPIPEAVCCSDHQHCCPQGYTCVAEGQCQRGSEIVAGLEKMPARRASLSHPRDIGCDQHTSCPVGQTCCPSLGGSWACCQLPHAVCCEDRQHCCPAGYTCNVKARSCEKEVVSAQPATFLARSPHVGVKDVECGEGHFCHDNQTCCRDNRQGWACCPYRQGVCCADRRHCCPAGFRCAARGTKCLRREAPRWDAPLRDPALRQLL	no binding (tested: 120 nM)	no binding (tested: 120 nM)	6	~3	~20		
alkaline-phosphatase (AP) alone (enzyme, UniProt P05187 23-511, looked up, Control for the AP tag) IIPVEEENPDFWNREAAEALGAAKKLQPAQTAAKNLIIFLGDGMGVSTVTAARILKGQKKDKLGPEIPLAMDRFPYVALSKTYNVDKHVPDSGATATAYLCGVKGNFQTIGLSAAARFNQCNTTRGNEVISVMNRAKKAGKSVGVVTTTRVQHASPAGTYAHTVNRNWYSDADVPASARQEGCQDIATQLISNMDIDVILGGGRKYMFRMGTPDPEYPDDYSQGGTRLDGKNLVQEWLAKRQGARYVWNRTELMQASLDPSVTHLMGLFEPGDMKYEIHRDSTLDPSLMEMTEAALRLLSRNPRGFFLFVEGGRIDHGHHESRAYRALTETIMFDDAIERAGQLTSEEDTLSLVTADHSHVFSFGGYPLRGSSIFGLAPGKARDRKAYTVLLYGNGPGYVLKDGARPDVTESESGSPEYRQQSAVPLDEETHAGEDVAVFARGPQAHLVHGVQEQTFIAHVMAFAACLEPYTACDLAPPAGTTDAAHPG						no binding (tested: 20 nM)	no binding (tested: 10 nM)
